From patent US20230331809A1

Molecular target: CD40 (Cluster of Differentiation 40) on cells (UniProt P25942)
Sequence (P25942 21-277 limits assumed): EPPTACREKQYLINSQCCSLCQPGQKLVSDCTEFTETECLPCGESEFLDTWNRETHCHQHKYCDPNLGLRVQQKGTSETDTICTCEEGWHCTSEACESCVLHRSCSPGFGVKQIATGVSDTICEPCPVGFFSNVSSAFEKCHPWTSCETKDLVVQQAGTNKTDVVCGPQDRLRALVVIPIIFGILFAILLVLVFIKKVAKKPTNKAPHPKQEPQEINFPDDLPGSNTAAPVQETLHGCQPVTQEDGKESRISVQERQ

Chain of CD40L (Invivogen), native CD40 binding partner (P29965 113-261 limits assumed): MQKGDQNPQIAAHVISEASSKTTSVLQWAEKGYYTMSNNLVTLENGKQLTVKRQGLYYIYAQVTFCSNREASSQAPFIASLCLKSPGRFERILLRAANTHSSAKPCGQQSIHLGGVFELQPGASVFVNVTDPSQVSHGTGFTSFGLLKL

CD40L (Invivogen), native CD40 binding partner (from UniProt P29965 113-261) (ligand)
EC50, CD40 RGA, FcgRIIB CHOK1: 0.81 µg/mL | EC50, CD40 RGA, HEK Blue only: 0.43 µg/mL | EC50, CD40 RGA, WT CHOK1: 0.44 µg/mL | Fold wrt WT (EC50, relative to v32477 - uPa), CD40 RGA, FcgRIIB CHOK1: 16.6 fold | Fold wrt WT (EC50, relative to v32477 - uPa), CD40 RGA, HEK Blue only: 2.76 fold | Fold wrt WT (EC50, relative to v32477 - uPa), CD40 RGA, WT CHOK1: 3.19 fold
